Bridges are numbered along the chain shown (N, C = ends). Where no end group is shown, it is not given here.
T1: alpha subunit of the human FcεRI receptor expressed on cells (human, UniProt P12319 26-257)
T1 construct: whole, on cells; on rat basophil RBL-48 cells in the histamine release assay; also called CHO FcεRI+ cells; cell surface expressed FcεRI
T1 sequence (looked up): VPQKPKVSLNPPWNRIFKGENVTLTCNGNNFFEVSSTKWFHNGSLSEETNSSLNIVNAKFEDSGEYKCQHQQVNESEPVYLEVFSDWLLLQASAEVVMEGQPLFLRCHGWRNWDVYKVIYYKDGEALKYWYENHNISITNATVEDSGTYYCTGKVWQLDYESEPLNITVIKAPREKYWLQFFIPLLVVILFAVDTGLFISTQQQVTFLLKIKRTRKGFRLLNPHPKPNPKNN

T2: extracellular domain of the alpha subunit of the human FcεRI (aa 1-176), produced in baculovirus infected … (human, UniProt P12319 26-201, N-linked carbohydrate (NAG on Asn21 seen in the crystal); derivatised with PDEA for thiol coupling to the chip in the biosensor assay)
T2 construct: range 1-176; Residues 1-176 are probably counted without the signal peptide; also called FcεRIα; soluble FcεRI
T2 sequence (looked up): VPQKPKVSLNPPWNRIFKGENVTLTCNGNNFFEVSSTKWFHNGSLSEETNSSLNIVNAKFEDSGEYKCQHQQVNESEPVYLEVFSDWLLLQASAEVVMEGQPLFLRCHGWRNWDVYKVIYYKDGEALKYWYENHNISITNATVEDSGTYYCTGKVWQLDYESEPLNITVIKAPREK


molecular target: T1, alpha subunit of the human FcεRI …; experiment: inhibition of 125I-IgE binding to CHO cells expressing human FcεRI alpha
Procedure: To determine the ability of peptides to inhibit IgE binding to FcεRI, a cell-based binding assay was used with radiolabeled IgE. Chinese hamster ovary cells expressing the alpha subunit of the human FcεRI receptor were cultured overnight in Falcon 96 well microtiter plates at a concentration of 5 ×10^4 cells per well. The following day the cells were rinsed three times with PBS and then once with F12/DMEM. Peptide stocks were reconstituted in 100 mM Hepes buffered water, pH 7.2, at a concentration of 5 mg/mL. Working concentrations of the peptide were diluted in assay buffer (see below). 75 uL of a desired concentration of peptide was added to the top row of a separate 96 well microtiter plate and serially diluted 1:3 in 50 uL of the assay buffer (F12/DMEM, 1% BSA, 0.05% NaN_3 and 0.025 mM Hepes pH 7.2). Starting concentrations ranged from 50–500 uM. Next, 50 uL of the diluted peptide was transferred to the 96 microtiter well plate containing a monolayer of CHO FcεRI+ cells. […] Cells were
Alanine substitutions in IGE063 (SEQ ID NO:49) were used to assess sidechain contributions. The P9A (IGE070, SEQ ID NO:52) substitution had the largest impact with a >500× reduction in binding. […] Clearly the alanine substitutions at G8, P9, W10, G11 and W12 all had major impacts on binding FcεRI.

| fold reduction in inhibition (against IGE063) | fold reduction in binding (against IGE063) | Binder |
| --- | --- | --- |
| 34 fold |  | PRCTEGPWGWVCM-NH2 (disulfide 3-12 (inferred)) [IGE069] |
|  | > 400 fold | Ac-NLPRCTEGPWGWVC (disulfide 5-14 (inferred)) [IGE082] |
|  | 30 fold | NLPRCTEGPWAWVCM (disulfide 5-14 (inferred)) [IGE074] |
|  | 256 fold | NLPRCTEAPWGWVCM (disulfide 5-14 (inferred), also called G8A) [IGE079] |
| 3 fold |  | LPRCTEGPWGWVCM-NH2 (disulfide 4-13 (inferred)) [IGE068] |

molecular target: T1, alpha subunit of the human FcεRI …; experiment: IgE inhibition assay (Table 9)

| fold difference in activity against IGE134 | Binder |
| --- | --- |
| ≤ 2 fold | CPHFCYELDYELCPDVCY-NH2 (disulfide (positions not given here); also: two intramolecular disulfide bonds, pairing not given here) [IGE155] |

molecular target: T2, extracellular domain of the alpha …; experiment: SPR biosensor (BIAcore), peptide over immobilized FcεRIα, steady-state saturation curve, 4-parameter fit
Procedure: *peptide is a dimer. SEQ ID NO: describes each monomer of the dimer. "ava" = amino-valeric acid Several peptides were also tested in a direct-binding assay using a surface plasmon resonance biosensor (Lofas & Johnsson, *J. Chem. Soc. Commun.* 21, 1526–1528 (1990)). FcεRIα, produced in baculovirus infected insect cells, was immobilized by the surface thiol method (BIAcore Methods Manual Supplement 5a, BIAcore, Inc., Piscataway, N.J.). Briefly, receptor was reacted with 2-(2-pyridinyldithio)ethaneamine hydrochloride (PDEA; Natake & Swaisgood, *J. Biochem.* 74, 77–86 (1973)), desalted into 10 mM sodium acetate (pH 4.8) and stored in aliquots at −80° C. Thawed PDEA-receptor was injected over carboxymethyl-dextran (B1 or CM5, BIAcore, Inc.) biosensor chips preactivated with N-ethyl-N'-(3-dimethylaminopropyl)-carbodiimide hydrochloride (EDC) and N-hydroxysuccinimide (NHS), cystamine, and DTT. Following coupling, reactive groups on the chip were quenched with PDEA and ethanolamine. Serial dilutions of peptide in running buffer (phosphate-buffered saline containing 0.05% Tween-20, 0.01% sodium azide) were injected over the immobilized receptor, and the net amount of peptide bound at steady-state was measured as the net change in response (RU) at a point just prior to termination of peptide injection, compared to a running-buffer baseline. Binding affinities (Table 10) are reported as the midpoint ($EC50$) of a 4-parameter fit to the peptide saturation curve. In the case of IGE134 (SEQ ID NOS:), the value shown indicates the Kd calculated from the rate constants, $kon$ and $koff$. The results of binding assays (Table 8) correlate well with those of inhibition assays (Table 7).

| Binder | EC50 |
| --- | --- |
| VQCPHFCYVGGKVQCPHFCYV-NH2 (disulfide (positions not given here); not fully specified (bridges); also: oxidized, disulfide-bonded Cys, pairing not given here) [IGE131] | 2300 nM |
| VKCPSLCYVGGKALCPDVCYV-NH2 (disulfide (positions not given here); also: oxidized, disulfide-bonded Cys, pairing not given here) [IGE123] | 180 nM |
| VPCPELCYVGGKALCPDVCYV-NH2 (disulfide (positions not given here); also: oxidized, disulfide-bonded Cys, pairing not given here) [IGE124] | 890 nM |
| ALCPAVCYVGGKALCPDVCYV-NH2 (disulfide 7-15, 3-19; N-terminus assumed; SMILES CC(C)C[C@H](NC(=O)[C@H](C)N)C(=O)N[C@H]1CSSC[C@@H](C(=O)N[C@@H](Cc2ccc(O)cc2)C(=O)N[C@H](C(N)=O)C(C)C)NC(=O)[C@H](C(C)C)NC(=O)[C@H](CC(=O)O)NC(=O)[C@@H]2CCCN2C(=O)[C@@H]2CSSC[C@H](NC(=O)[C@H](C(C)C)NC(=O)[C@H](C)NC(=O)[C@@H]3CCCN3C1=O)C(=O)N[C@@H](Cc1ccc(O)cc1)C(=O)N[C@@H](C(C)C)C(=O)NCC(=O)NCC(=O)N[C@@H](CCCCN)C(=O)N[C@@H](C)C(=O)N[C@@H](CC(C)C)C(=O)N2, single chain dimer form of IGE089 with Ala17Asp) [IGE083] | 1100 nM |
| NGCPGWCYVGGKALCPDVCYV-NH2 (disulfide 7-15, 3-19; N-terminus assumed; SMILES CC(C)C[C@@H]1NC(=O)[C@H](C)NC(=O)[C@H](CCCCN)NC(=O)CNC(=O)CNC(=O)[C@H](C(C)C)NC(=O)[C@H](Cc2ccc(O)cc2)NC(=O)[C@@H]2CSSC[C@H](NC1=O)C(=O)N1CCC[C@H]1C(=O)N[C@@H](CC(=O)O)C(=O)N[C@@H](C(C)C)C(=O)N[C@H](C(=O)N[C@@H](Cc1ccc(O)cc1)C(=O)N[C@H](C(N)=O)C(C)C)CSSC[C@H](NC(=O)CNC(=O)[C@@H](N)CC(N)=O)C(=O)N1CCC[C@H]1C(=O)NCC(=O)N[C@@H](Cc1c[nH]c3ccccc13)C(=O)N2) [IGE119] | 1400 nM |
| IVCPRLCYVGGKALCPDVCYV-NH2 (disulfide (positions not given here); also: oxidized, disulfide-bonded Cys, pairing not given here) [IGE120] | 260 nM |
| IVCARLCYVGGKALCPDVCYV-NH2 (disulfide (positions not given here); not fully specified (bridges); also: oxidized, disulfide-bonded Cys, pairing not given here, P4A variant of IGE120) [IGE127] | 13000 nM |
| ALCPAVCYV-NH2 (also: antiparallel disulfide-linked homodimer, interchain C3-C7' and C7-C3', also called IGE037 dimer) [IGE089] | 64000 nM |

Continued, values first:

| EC50 | Binder |
| --- | --- |
| 680 nM | VQCPHFCYVGGHALCPDVCYVGR-OH (cysteine pairing not given here, produced biosynthetically as a fusion to the Z-domain of protein A and cleaved off with trypsin; free C-terminus) [IGE132] |
| 380 nM | VTCPRWCYVGGKALCPDVCYV-NH2 (disulfide (positions not given here); also: oxidized, disulfide-bonded Cys, pairing not given here) [IGE126] |
| 340 nM | VVCPNMCYVGGKALCPDVCYV-NH2 (disulfide (positions not given here); also: oxidized, disulfide-bonded Cys, pairing not given here) [IGE121] |
| 250 nM | ALCPDVCYVGGKVQCPHFCYV-NH2 (disulfide 7-15, 3-19; N-terminus assumed; SMILES CC(C)C[C@H](NC(=O)[C@H](C)N)C(=O)N[C@H]1CSSC[C@@H](C(=O)N[C@@H](Cc2ccc(O)cc2)C(=O)N[C@H](C(N)=O)C(C)C)NC(=O)[C@H](Cc2ccccc2)NC(=O)[C@H](Cc2c[nH]cn2)NC(=O)[C@@H]2CCCN2C(=O)[C@@H]2CSSC[C@H](NC(=O)[C@H](C(C)C)NC(=O)[C@H](CC(=O)O)NC(=O)[C@@H]3CCCN3C1=O)C(=O)N[C@@H](Cc1ccc(O)cc1)C(=O)N[C@@H](C(C)C)C(=O)NCC(=O)NCC(=O)N[C@@H](CCCCN)C(=O)N[C@@H](C(C)C)C(=O)N[C@@H](CCC(N)=O)C(=O)N2) [IGE130] |
| 240 nM | KSCPLWCYVGGKALCPDVCYV-NH2 (disulfide (positions not given here); not fully specified (bridges); also: oxidized, disulfide-bonded Cys, pairing not given here) [IGE128] |
| 150 nM | VQCPHFCYVGGKALCPDVCYV-NH2 (disulfide (positions not given here); also: oxidized, disulfide-bonded Cys, pairing not given here) [IGE122] |
